The text below walks through data of patent US20160052997A1.

The target of the assay is HA of A/CA/04/09 (H1N1) virus (Influenza A virus A/CA/04/09 (H1N1)). The assay can be described thus: cell-based or functional assay.

In turn, CT-P27 registered an EC50, microneutralization test of 0.62 µg/mL.
